Measured values as given in patent US20200140562A1 (Innovent, published 2020).
Read-outs that look alike come from different tables or passages of the source.

Assays:
[1] = target: T1, human OX40 on cells (CHO-hOX40, 293HEK-hOX40, Jurkat-hOX40, activated primary CD4+ T cells) (human, UniProt P43489 29-277); assay: flow cytometry, CHO-hOX40, 3.125 nM
T1 construct: whole, on cells; The cell type is told in each assay; also called CHO-OX40
T1 sequence (looked up): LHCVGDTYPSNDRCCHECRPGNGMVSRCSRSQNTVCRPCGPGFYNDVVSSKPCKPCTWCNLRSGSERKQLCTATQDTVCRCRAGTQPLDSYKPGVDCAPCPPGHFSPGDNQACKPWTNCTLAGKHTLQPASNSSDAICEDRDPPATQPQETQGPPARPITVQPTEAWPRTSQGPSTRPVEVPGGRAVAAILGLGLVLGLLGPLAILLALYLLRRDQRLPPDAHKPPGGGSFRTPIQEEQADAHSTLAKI

[2] = target: T1, human OX40 on cells (CHO-hOX40, …); assay: flow cytometry, CHO-hOX40
[3] = target: T1, human OX40 on cells (CHO-hOX40, …); assay: flow cytometry, CHO-hOX40, 0.048828125 nM
[4] = target: T1, human OX40 on cells (CHO-hOX40, …); assay: flow cytometry, CHO-hOX40, 50 nM
[5] = target: T1, human OX40 on cells (CHO-hOX40, …); assay: flow cytometry, CHO-hOX40, 25 nM
[6] = target: T1, human OX40 on cells (CHO-hOX40, …); assay: flow cytometry, CHO-hOX40, 0.390625 nM
[7] = target: T1, human OX40 on cells (CHO-hOX40, …); assay: flow cytometry, CHO-hOX40, 0.1953125 nM
[8] = target: T1, human OX40 on cells (CHO-hOX40, …); assay: flow cytometry, CHO-hOX40, 100 nM blocker, competitor OX40L-hFc-fluorescein
[9] = target: T1, human OX40 on cells (CHO-hOX40, …); assay: flow cytometry, CHO-hOX40, 50 nM; remark: listed apart in the source
[10] = target: T1, human OX40 on cells (CHO-hOX40, …); assay: flow cytometry, CHO-hOX40, 0.78125 nM
[11] = target: T1, human OX40 on cells (CHO-hOX40, …); assay: flow cytometry competition on CHO cells expressing human OX40; blocked ligand OX40L-mFc (60 ug/ml), detected with anti-murine Fc-FITC
[12] = target: T1, human OX40 on cells (CHO-hOX40, …); assay: flow cytometry, CHO-hOX40, 200 nM
[13] = target: T1, human OX40 on cells (CHO-hOX40, …); assay: flow cytometry, CHO-hOX40, 0.09765625 nM
[14] = target: T1, human OX40 on cells (CHO-hOX40, …); assay: flow cytometry, CHO-hOX40, 12.5 nM
[15] = target: T1, human OX40 on cells (CHO-hOX40, …); assay: flow cytometry, CHO-hOX40, 12.5 nM; remark: listed apart in the source
[16] = target: T1, human OX40 on cells (CHO-hOX40, …); assay: flow cytometry, CHO-hOX40; remark: listed apart in the source
[17] = target: T1, human OX40 on cells (CHO-hOX40, …); assay: flow cytometry, CHO-hOX40, 100 nM
[18] = target: T1, human OX40 on cells (CHO-hOX40, …); assay: flow cytometry, CHO-hOX40, 1.5625 nM
[19] = target: T1, human OX40 on cells (CHO-hOX40, …); assay: flow cytometry, CHO-hOX40, 0.024414063 nM
[20] = target: T1, human OX40 on cells (CHO-hOX40, …); assay: flow cytometry, CHO-hOX40, 0.048828125 nM; remark: listed apart in the source

B1: OX40L (control reagent; recombinant OX40L, Acro Biosystems) (ligand, UniProt P23510 51-183, looked up)
chain: QVSHRYPRIQSIKVQFTEYKKEKGFILTSQKEDEIMKVQNNSVIINCDGFYLISLKGYFSQEVNISLHYQKDEEPLFQLKKVRSVNSLMVASLTYKDKVYLNVTTDNTSLDDFHVNGGELILIHQNPGEFCVL
notes: may be the same reagent as OX40L-hFc
With B1 the MFI [1] was 342000 MFI, the EC50 [2] was 12.4 nM and the MFI [3] was 8350 MFI. For the same binder, the MFI [4] was 1.08e+06 MFI, the MFI [5] was 1.84e+06 MFI and the MFI [6] was 49700 MFI. For the same binder, the MFI [7] was 24800 MFI, the “MFI of OX40L signal on CHO-OX40 cells” value [8] was 19300 MFI and the MFI [9] was 2.72e+06 MFI. For the same binder, the MFI [10] was 317000 MFI, the “IC50 (read off the curve)” value [11] was roughly 20 nM and the MFI [12] was 2.68e+06 MFI. It also gave an MFI [13] of 35200 MFI, an MFI [14] of 1.99e+06 MFI and an MFI [15] of 1.11e+06 MFI. For the same binder, the EC50 [16] was 5.33 nM, the MFI [17] was 2.51e+06 MFI and the MFI [18] was 554000 MFI. It also gave an MFI [19] of 7970 MFI and an MFI [20] of 34000 MFI.
